Patent US12472269B2, “Liver-specific inducible promoters and methods of use thereof” (ASKBIO INC., priority 2019, dated 2025)

Assays:
[1] = system: AXOL ARE-hepatocytes; assay: Luciferase expression from PBREM promoters in AXOL ARE-hepatocytes, induction by CITCO; assay type: cell-based, human; conditions: induction with CITCO, mean of 3 biological replicates
Excerpt: Axol Assay-Ready Expanded (ARE) Hepatocytes are primary human hepatocytes that have been expanded in vitro. Large batch sizes (up to 2000 vials) are available, ensuring a reliable, ready-to-use and consistent source of primary hepatocytes. ARE Hepatocytes express CYP enzymes, are metabolically functional, are polarized and can be infected by the Hepatitis C virus. AXOL ARE-hepatocytes express CAR negating the need to transfect with a CAR-expressing plasmid.
• AXOL assay-ready expanded (ARE) hepatocytes (Axol, ax3701) • ARE hepatocyte thawing medium (Axol, ax3705) • ARE maintenance medium (Axol, ax3710) • Virimer red transfection reagent (Lipocalyx, VR04-02-15) • CITCO, lucifierase, β-galactosidase and BCA kits as described above
ARE hepatocytes were cultured and transfected as described in the manufacturer's manual. 200,000 cells were seeded in 2 ml culture medium in collagen-coated 6 well plate. The cells were incubated for 4 h at 37° C. and 5% CO2 for sufficient adhesion. 200 μl of transfection mixture containing the DNA to be transfected (PB1-MinTK/PB1-CMV/PB1-SV40 operably linked with luciferase and β-galactosidase containing promoter) was added and the cells were incubated on an orbital shaker at 100 rpm for three hours at 37° C. and 5% CO2. 3 hrs after transfection CITCO was added to the appropriate wells. Cells were incubated under static conditions at 37° C. and 5% CO2 overnight and in the morning the medium was replaced with fresh ARE Hepatocyte Maintenance Medium. Readout was 24 hrs after induction. […]

[2] = system: Huh7 and ARE primary cells; assay: Effect of AAV ITRs: pAAV constructs transfected into Huh7 and ARE primary cells, compared with pGL4.10; assay type: cell-based, human; conditions: mean of 3 biological replicates
Excerpt: Following from Example 3, it was decided to take PB1-MinTK and PB1-2-MinTk forward for in vivo studies. To facilitate this the two aforementioned constructs were cloned into pAAV vector (Takara, Clontech) to allow for the preparation of AAV viruses. The inserts where cloned using restriction digest of the pAAV plasmid and PCR amplification of the original pGL4.10 constructs.
We investigated the effect of the Inverted Terminal Repeats (ITRs) on the activity of the promoters. This was done as we have observed interference from the AAV ITRs in other projects. To this end, the pAAV-PB1-MinTk and pAAV-PB1-2-MinTk were transfected into Huh7 and ARE primary cells as previously described and their activity assessed.

[3] = system: AXOL ARE hepatocytes; assay: Luciferase expression from pAAV constructs in AXOL ARE hepatocytes without CITCO, with CITCO and after CITCO withdrawal; assay type: cell-based, human; conditions: pAAV vector
Protocol: Luciferase expression from the PB1-MinTK and PB1-2-MinTK constructs in the pAAV vector in AXOL ARE hepatocytes is inducible by CITCO (1 μM) but reduces after removing CITCO as shown in FIG. 5.

[4] = system: CD1 male mice; assay: In vivo bioluminescence imaging of mice injected with AAV9 constructs, induction by phenobarbital
Protocol: • Seed HEK 293-AAV cells in 15 cm plates. To be 70-80% confluent on the day of transfection • Final volume on each plate: 15 ml Day 2: Prepare Transfection Mix: • DNA mix/plate: pDG9 (Packaging plasmid for AAV9): 10.5 μg/pHGTI (Ad. Helper plasmid): 31.5 μg/Vector plasmid: 10.5 μg/Prepare in serum free DMEM/Optimem • Transfer mix/plate: PEI: 125 μl/Prepare in serum free DMEM/Optimem • Add DNA mix into transfection mix. Mix and leave at room temperature for 15-20 mins. • Add 3 ml of transfection mix to each plate drop-wise and gently distribute. Incubate for 24 h. Day 3: • Replace media with 15 ml DMEM supplemented with P/S and 2% FCS. Leave for 48 h. Day 5: • Collect supernatant and pool in 50 ml tubes, 25 ml each tube. Store at −20° C. • Collect cells: Add 5 ml of PBS to each plate→scrape and collect in 50 ml tubes. • To wash plates, add another 1 ml of PBS and collect. • Spin at 1500 rpm for 5 mins. • Remove supernatant and resuspend pelleted cells in 1 ml/plate TD lysis buffer→pool • Store at −80′C. Endonuclease Treatment Cells: • Freeze and thaw pellets 5 times→˜20 mins at 37° C. then ˜20 mins in dry ice (or −80° C.). • Add 25 μl/ml cells of 20% Deoxycholate (or 50 μl/ml of 10% Deoxycholate). • Add 8 μl/ml cells of benzonase. • Incubate at 37° C. for 30 mins. • Spin at 4 Krpm for 30 mins. • Filter supernatant using […] filters. • Store at 4° C. for up to 24 h. Supernatant: • Add 2.5 μl/25 ml supernatant of benzonase. • Add 50 μl/25 ml supernatant of MgSO4. • Incubate at 37° C. for 30 mins. • Spin at 4 Krpm for 30 mins. • Filter supernatant using […] filters. • Store at 4′C for up to 24 h. Hplc Purification • Place both lines in 20% ETOH→template→system wash • Put line A in PBS and line B in Glycine→template→system wash • Place the column in the machine→manual run→flowrate: 5 ml/min→Run for 25 ml or until the UV line is flat. • Prepare FACS tubes (10 for cells and more for supernatant): add 30 μl/tube Tris→put in the machine to collect vectors. • Place the waste lines in a separate tube to be able to run them again through the column. • Run samples (flowrate low, depending on how fast the system and how concentrated the sample is; for cells it is slower, for supernatant it is higher). • After running the waste through the column, wash with PBS→flowrate: 5 ml/min until the UV line is flat. • Set→fraction size: 1 ml; Flowrate: 1 ml/min; concentration % B: 100%→run. • Start collecting: Look for the peak. The peak indicates vector purification. Mark the tubes containing these vectors. • Save programme before exiting. • Wash with PBS→75 ml, 5 ml/min • Wash with Na3PO4 (to store the column in)→75 ml, 5 ml/min • Remove column and store at 4° C. • Wash the machine with PBS→template→system wash • Wash the machine with 20% ETOH→template→system wash • Put both lines in 20% ETOH and shut down • Add 2 L of PBS into a big bucket and put the Dialysis cassette (Side-A-Lyzer; Thermo scientific) to prime. • Collect the vectors from the marked FACS tubes using a syringe and needle and add into the dialysis cassette→remove excess air from the membrane, carefully place the rubber on top of the cassette and let it float in the PBS-containing bucket→leave over night at room temperature on a slow rotating rotor. Next Day: • Prime membrane by adding 5 ml PBS onto a centrifugal filter (Amico Ultra 15; MERCK)→spin for 5 mins at 4 Krpm • Remove excess PBS from inside the membrane. • Take vectors out from the cassette and load onto the membrane→spin for 5 mins at 4 Krpm • Wash the membrane with the vectors inside few times, then collect into 2 ml centrifuge tube filter 0.22 μM (Spin-X; COSTAR) • Spin for 3 mins at 13 Krpm. • Remove filter and aliquot: 1×100 μl (for injection), the rest in 10-2 μl aliquots. • Store in −80° C. • Virus quantification was performed using qRT-PCR with primers and probes for the luciferase gene. Mice Experiment […]

[5] = AAV9, phenobarbital intraperitoneally

B1: PB1-2-MinTK: promoter: 3×PBREM and min-TK promoter, SEQ ID NO: 11 (nucleic acid)
DNA: TCTGTACTTTCCTGACCTTGGCACAGTGCCACCATCAACTTGCCTGACACCCATTACTCGCATCCATTCTCTCTGTACTTTCCTGACCTTGGCACAGTGCCACCATCAACTTGCCTGACACCGCACTGAAGGTCCTCAATCGTCTGTACTTTCCTGACCTTGGCACAGTGCCACCATCAACTTGCCTGACACCGCTGGGAGTTCGTAGACGGAGATCCGGCCCCGCCCAGCGTCTTGTCATTGGCGAATTCGAACACGCAGATGCAGTCGGGGCGGCGCGGTCCGAGGTCCACTTCGCATATTAAGGTGACGCGTGTGGCCTCGAACACCGAGCGACCCTGCAGCGACCCGCTTAACAGCGTCAACAGCGTGCCGCAGATCTCGAGGAGCTTGGCGAGATTTTCAGGAGCTAAGGAAGCTAAAC
modifications: PB1-2-MinTk (3xPBREM)
[1]
  induced luciferase expression as a ratio to CMV-IE: 4.1
[2]
  induction of luciferase expression across pGL4.10 and pAAV vectors and cell types: comparable across vectors and cell types
[3]; CITCO (1 μM)
  luciferase expression with CITCO: inducible
[3]; CITCO withdrawal
  activity of the promoter after removal of CITCO: almost baseline levels
[4]; 0 hrs
  luciferase expression before induction: no expression of the luciferase gene
[4]; [5]
  time at which induction is complete: 48 h
  time of maximal activity after induction: 24 h
[4]; AAV9 via tail vein
  tissue distribution of luciferase expression: confined to the liver
